Reference: the nanobody polyreactivity screen of Harvey et al. (2022)

Test: yeast display, Sf9 membrane polyspecificity reagent, FACS + sequencing; frameworks hold sequencing errors
Procedure, shortened: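 Galactose-induced (36–48 hours) yeast carrying a synthetic nanobody display library were exposed to 10% biotinylated, detergent-solubilized Sf9 membrane reagent at 4 °C for 1 hour. FACS followed streptavidin microbead enrichment, using low and high (top ~1%) gates for expression (anti-HA) and reagent binding (streptavidin). Colony PCR, MiSeq 2 × 250 sequencing and CDR-length filtering followed. Labels for polyreactivity reflect the gate of origin.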

Sequence	polyreactivity (PSR sort gate)
QVQLVESAGGLVQAGGSLRLSCAASGSIFYEYAMGWYRQAPGKERELVATITWTDDSTYYADSVKGRFTISRDNAKNTVYLQMNSLKPEDTAVYYCNADLWPGNHDGYWGQGTQVTVSS	low polyreactivity
QVQLEESGGGFVQAGGSLRLSCAASGYIFFPHAMGWYRQATWKERELVAAINSRGASTYYADSVKGRFTISRDNAKNTVSLQMNSLKPVDTAVYYCAKGSGLHIYHYYGVPYDYWGQGTQVTVSS	low polyreactivity
QVQLVESGGGFVQAGGSLRLSCAASGVTYGGYAMGWYRQAPGKERELVAAITGSAGNTFYADSVKGRFTISRDNAKHTVYLQMNSLKPEDTAVYYCANTWYPWSRYGYYGRYDSWGLGTQVTVSS	low polyreactivity
QVQLVESAGGLVQAGGRLRLSCAASGFTFRYYAMGWYRQAPGKERELVATITPGGSTNYADSVKGRFTISRDNAKNTVYLEMNSLKPEDTAVYYCAASLYRVIAFGYWGQGTQVTVSS	high polyreactivity
QVQHVESGRGLVQAGGILRLSCAASGRIFRMNAMGWYRQATGKERELDAAITWIGGRTYYADSVKGRFTISRDNAKNTVYLQMNSLKPEDTAVYYCAAAYPLDFWFGFEYDYWGQGTQGTVSS	high polyreactivity
QVQLVESGGGLVQAGGSLRLSCAASGRTFATYAMGWYRQAPGKERELVAAITSGGSTYYADSVKGRFTISRDNAKNTVYLQMNSLKPEDTAVYYCAAARKYYGYNYWGQGTQVTVSS	high polyreactivity
QVQLVESGGGVVQAGGSLRLSCAASGRIFSSYAMGWYRQAPGKERELVAAITSGGSTDYADSVKGRFSISRDNAKNTVYLQMNSLKPEDTAVYYCAKAFLAPWTYSPYYMFYYWGQGTQVTVSS	low polyreactivity
QVQLVESGGGLVQAGGSLRLSSAASGIFRWNTKGWYRQAPRKERELVATISWGGGTTYYADSVKGRFTISRDNAKNTVYLQMNSLKPEDTAVYYCAKVYAVRIGMRYSYWGHGTQVTVSS	low polyreactivity
QVQLVESGGGLVQAGGSLRLSCAASGGTYELYVMGWYRQAPGKERELVAAISVNGDDTYYADSVKGRITISRDNAKNTVYLQMNSLKPEDTAVYYCAAEVLGSYYLTGYDYWGQGTQVTVSS	high polyreactivity
QVHLVESGGGLVQAGGSLPLSCAASGIIFGGYDMGWYRPAPGIERELVAAISWSGGSTYYADSVKGRFTISRDNAKNTVYLPMNSLKPEDTAVYYCAAAYYAPTRVYYYWGQGTQVTVSS	low polyreactivity
QVQLVESGGGLVQAGGSLRLSCAASGKTFVTYAMGWYRQAPGKERELVATISSSGGSTYYADSVKGRFTISRDNAKNTVYLQMNSLKPEDTAVYYCAKQAWAYALYTNFYSGDYGYWGQGTQVTVSS	low polyreactivity
QVQLVESGGGLVQAGGSLRLSCAASGSTFYYNGMGWYRQAPGKERELVAVISISGGSTYYADSVKGRFTISRDNAKNTVYLQMNSLKPEDTAVYYCATSYVGRSAYRSYGARGGYWGQGTQVTVSS	low polyreactivity
QVQLVESGGGLVQAGGSLRLSCAASGFISSENAMGWYRQAPGKERELVAAISSGGSTNYADSVKGRFTISRDNAKNTVYLQMNSRKPEDTAVYYCAATLPGWYNEDDSWGQGTQVTVSS	low polyreactivity
QDQLVESGGGLVQAGGSLRLSCAASGRTFYLYAMGWYSQAPGKEREFVAVINSSGGSTYYADSVKGRFTISRDNAKNTVYLQMNSLKPEDTAVYYCAAYPIPRGRDYWGPGTQVTVSS	low polyreactivity
QVQLVESGGGLDQSGGSLSLSCAASGSNFRLNAMGWSRQAPGKETELVAAISYRGGSTNYADSVKGRFTISRDNAKNTVYLQMNILKPEDTAVYYCAANIYRSSGQCMDYWGQGTEVTVSS	low polyreactivity
QVQLVESGGGLVQAGGSLRLSCAASGIIFVRYAMGWYRQAPGKERELVAAISWSGGSTYYADSVKGRFTISRDNAKNTVYLQMNSLKPEDTAVYYCAADSHRTRGDARYYYWGQGTQVTVSS	high polyreactivity
